Measured values as given in patent US20060147420A1 (University of Texas, published 2006).
Where no end group is shown, it is not given here.

Biological target: T1, EGFRvIII (on U-87.ΔEGFRvIII cells) (human, UniProt P00533 25-1210)
T1 construct: whole, on cells; also called de2-7 EGFR; mutant EGFR
Test: flow cytometry, membrane fluorescence staining of cell suspensions with 1 uM FITC-peptide for 30 min

B1: anti-EGFRvIII peptide (PEPCH1)-FITC (peptide)
peptide: HFLIIGFMRRALCGA
modifications: also: FITC label, position not given here
notes: Synthetic peptide after Campa et al., 2000; Used at 1 uM as a FITC conjugate; also called PEPHC1; PEPHC1 ligand
B1: binds.
